Earlier results, collected in article PMC11209772.
Several values for one entry are separate records, joined by “and”; a condition that tells them apart may be missing. Equal values may be shown once. Read-outs that look alike come from different tables or passages of the source.

Legend:
SSB (Escherichia coli) [1] = target: SSB (Escherichia coli) (UniProt P0AGE0); test: FP
SSB (Escherichia coli) [2] = target: SSB (Escherichia coli) (UniProt P0AGE0); test: SPR
[3] = target: SSB-Ct peptide (Escherichia coli) (UniProt P0AGE0); test: FP
SSB (Escherichia coli) [4] = target: SSB (Escherichia coli) (UniProt P0AGE0)
[5] = target: SSB-Ct peptide SSB-Ct (Escherichia coli) (UniProt P0AGE0); test: FP
[6] = target: SSB C-terminal peptide C-terminal 15 residues (Escherichia coli) (UniProt P0AGE0); test: SPR
SSB (Escherichia coli) [7] = target: SSB (Escherichia coli) (UniProt P0AGE0); test: ITC
[8] = target: SSB-Ct peptide SSB-Ct (Escherichia coli) (UniProt P0AGE0); test: ITC
[9] = target: SSB-Ct peptide SSB-Ct (Escherichia coli) (UniProt P0AGE0)

In the case of DNA polymerase IV (from UniProt Q47155), the Kd (SSB (Escherichia coli) [1]) is given as 2000 nM.
In the case of Pol III χψ (from UniProt P28905), the Kd (SSB (Escherichia coli) [2]) is listed as 2700 nM.
In the case of RarA (from UniProt P0AAZ4), the Kd (SSB (Escherichia coli) [2]) is given as 360 nM.
For ExoI (from UniProt P04995), the Kd [3] is given as 136 nM.
For “DNA polymerase III subunit chi (from UniProt P28905)”, the Kd (SSB (Escherichia coli) [4]) is listed as 330 nM.
For UDG (from UniProt P12295), the Kd (SSB (Escherichia coli) [2]) is listed as 170 nM.
In the case of RecO (from UniProt P0A7H3), the Kd [5] is given as 60 nM.
For PriA (from UniProt P17888), the Kd [6] is given as 2400 nM.
In the case of RecQ (from UniProt P15043), the Kd (SSB (Escherichia coli) [7]) is given as 6000 nM.
For RNase HI (from UniProt P0A7Y4), the Kd (SSB (Escherichia coli) [7]) is listed as 2000 nM.
In the case of PriC (from UniProt P23862), the Kd [8] is given as 670 nM and 3700 nM.
For RadD (from UniProt P33919), the Kd [9] is listed as 5400 nM and the Kd [3] is listed as 5400 nM.
